{"source": "paper PMC5606850", "origin": "cited, not measured here", "target": "HTLV-1 nucleocapsid NTD (Human T-cell leukemia virus type 1) (UniProt P03345)", "sequence (P03345 345-395)": "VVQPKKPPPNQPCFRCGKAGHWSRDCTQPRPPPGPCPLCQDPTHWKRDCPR", "data": [{"substance": "HTLV-1 nucleocapsid CTD (from UniProt P03345)", "values": [{"measurement": "Kd", "result": 200, "unit": "nM"}]}]}
